From the supplement of paper PMC6755084

B1: minF1; the commonest letter at each place (parent)
chain: GAGACCGCAACTGAAAAGTTGTTATCAGAAATGGATGGGTTGAATTTCTGCACGTAGAAGCAAAAGGC
B2: minF1; a variant is named by its letters at N, in order (parent)
chain: GAGACCGCAACTGAAAAGTTGTTATCAGAAATGNNNGGNTNNNTTTCTGCACGTAGAAGCAAAAGGC

Variants of: B1
Assay: fraction ligated after 30 min (ligated reads / total reads); higher = more ligase activity
Details: with F1*subA RNA substrate (template-directed ligation), 42 °C
Summary of the method: (§1)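 Templates from an oligo pool encoding minimized ligase ribozyme variants were amplified by PCR, transcribed with T7, and purified on gels. Gel electrophoresis separated ligated from unligated RNAs, which were then reverse transcribed using barcoded primers and sequenced on a MiSeq, keeping core bases with quality ≥30. For each variant, fraction ligated equals ligated reads divided by total reads.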

Variant | fraction ligated
GAGACCGCAACTGAAAAGTTGTTATCAGAAATGGATGGGTTTTTTTTCTGCACGTAGAAGCAAAAGGC [G42T A43T A44T] | 0.00186
GAGACCGCAACTGAAAAGTTGTTATCAGAAATGGATGGGTTTTGTTTCTGCACGTAGAAGCAAAAGGC [G42T A43T A44G] | 0.000847
GAGACCGCAACTGAAAAGTTGTTATCAGAAATGGATGGGTTTTCTTTCTGCACGTAGAAGCAAAAGGC [G42T A43T A44C] | 0.00206
GAGACCGCAACTGAAAAGTTGTTATCAGAAATGGATGGGTTGGATTTCTGCACGTAGAAGCAAAAGGC [A43G] | 0.0856
GAGACCGCAACTGAAAAGTTGTTATCAGAAATGGATGGGTTGTATTTCTGCACGTAGAAGCAAAAGGC [A43T] | 0.13
GAGACCGCAACTGAAAAGTTGTTATCAGAAATGGATGGGTTGCATTTCTGCACGTAGAAGCAAAAGGC [A43C] | 0.115
GAGACCGCAACTGAAAAGTTGTTATCAGAAATGGATGGGTTGCGTTTCTGCACGTAGAAGCAAAAGGC [A43C A44G] | 0.00638
GAGACCGCAACTGAAAAGTTGTTATCAGAAATGGATGGGTTGCCTTTCTGCACGTAGAAGCAAAAGGC [A43C A44C] | 0.00194
GAGACCGCAACTGAAAAGTTGTTATCAGAAATGGATGGGTTGCTTTTCTGCACGTAGAAGCAAAAGGC [A43C A44T] | 0.00456
GAGACCGCAACTGAAAAGTTGTTATCAGAAATGGATGGGTTGTGTTTCTGCACGTAGAAGCAAAAGGC [A43T A44G] | 0.00469
GAGACCGCAACTGAAAAGTTGTTATCAGAAATGGATGGGTTGTCTTTCTGCACGTAGAAGCAAAAGGC [A43T A44C] | 0.00191
GAGACCGCAACTGAAAAGTTGTTATCAGAAATGGATGGGTTGTTTTTCTGCACGTAGAAGCAAAAGGC [A43T A44T] | 0.00531
GAGACCGCAACTGAAAAGTTGTTATCAGAAATGGATGGGTTTATTTTCTGCACGTAGAAGCAAAAGGC [G42T A44T] | 0.0246
GAGACCGCAACTGAAAAGTTGTTATCAGAAATGGATGGGTTTACTTTCTGCACGTAGAAGCAAAAGGC [G42T A44C] | 0.00596
GAGACCGCAACTGAAAAGTTGTTATCAGAAATGGATGGGTTTAGTTTCTGCACGTAGAAGCAAAAGGC [G42T A44G] | 0.0143
GAGACCGCAACTGAAAAGTTGTTATCAGAAATGGATGGGTTGGTTTTCTGCACGTAGAAGCAAAAGGC [A43G A44T] | 0.00618
GAGACCGCAACTGAAAAGTTGTTATCAGAAATGGATGGGTTGGCTTTCTGCACGTAGAAGCAAAAGGC [A43G A44C] | 0.00393
GAGACCGCAACTGAAAAGTTGTTATCAGAAATGGATGGGTTGGGTTTCTGCACGTAGAAGCAAAAGGC [A43G A44G] | 0.00367
GAGACCGCAACTGAAAAGTTGTTATCAGAAATGGATGGGTTGAATTTCTGCACGTAGAAGCAAAAGGC [unchanged] | 0.761
GAGACCGCAACTGAAAAGTTGTTATCAGAAATGGATGGGTTTGCTTTCTGCACGTAGAAGCAAAAGGC [G42T A43G A44C] | 0.00145
GAGACCGCAACTGAAAAGTTGTTATCAGAAATGGATGGGTTTGTTTTCTGCACGTAGAAGCAAAAGGC [G42T A43G A44T] | 0.00254
GAGACCGCAACTGAAAAGTTGTTATCAGAAATGGATGGGTTTGGTTTCTGCACGTAGAAGCAAAAGGC [G42T A43G A44G] | 0.00264
GAGACCGCAACTGAAAAGTTGTTATCAGAAATGGATGGGTTTTATTTCTGCACGTAGAAGCAAAAGGC [G42T A43T] | 0.00326
GAGACCGCAACTGAAAAGTTGTTATCAGAAATGGATGGGTTTGATTTCTGCACGTAGAAGCAAAAGGC [G42T A43G] | 0.115
GAGACCGCAACTGAAAAGTTGTTATCAGAAATGGATGGGTTGACTTTCTGCACGTAGAAGCAAAAGGC [A44C] | 0.646
GAGACCGCAACTGAAAAGTTGTTATCAGAAATGGATGGGTTGATTTTCTGCACGTAGAAGCAAAAGGC [A44T] | 0.794
GAGACCGCAACTGAAAAGTTGTTATCAGAAATGGATGGGTTGAGTTTCTGCACGTAGAAGCAAAAGGC [A44G] | 0.79

Variants of: B2
Assay: as above
Details: with F1*subA RNA substrate (template-directed ligation), 42 °C
Summary of the method: as §1

Variant | fraction ligated
GAGACCGCAACTGAAAAGTTGTTATCAGAAATGGATGGGTTGCTTTCTGCACGTAGAAGCAAAAGGC [GATGTGC] | 0.00735
GAGACCGCAACTGAAAAGTTGTTATCAGAAATGGATGGGTTGTTTTCTGCACGTAGAAGCAAAAGGC [GATGTGT] | 0.00586
GAGACCGCAACTGAAAAGTTGTTACAGAAATGGATGGGTTGAATTTCTGCACGTAGAAGCAAAAGGC [ATGTGAA T25C C26A A27G G28A A31T T32G] | 0.0163
GAGACCGCAACTGAAAAGTTGTTATAGAAATGGATGGGTTGAATTTCTGCACGTAGAAGCAAAAGGC [ATGTGAA C26A A27G G28A A31T T32G] | 0.0728
GAGACCGCAACTGAAAAGTTGTATCAGAAATGGATGGGTTGAATTTCTGCACGTAGAAGCAAAAGGC [ATGTGAA T23A A24T T25C C26A A27G G28A A31T T32G] | 0.228
GAGACCGCAACTGAAAAGTTGTTATCAGAAATGGATGGGTTATTTTCTGCACGTAGAAGCAAAAGGC [GATGTAT] | 0.00414
GAGACCGCAACTGAAAAGTTGTTATCAGAAATGGATGGGTTAATTTCTGCACGTAGAAGCAAAAGGC [GATGTAA] | 0.175
GAGACCGCAACTGAAAAGTTGTTATCAGAAATGGATGGGTTTGTTTCTGCACGTAGAAGCAAAAGGC [GATGTTG] | 0.00218
GAGACCGCAACTGAAAAGTTGTTATCAGAATGGATGGGTTGAATTTCTGCACGTAGAAGCAAAAGGC [ATGTGAA A31T T32G] | 0.65
GAGACCGCAACTGAAAAGTTGTTATCAGAAAGGATGGGTTGAATTTCTGCACGTAGAAGCAAAAGGC [ATGTGAA T32G] | 0.0137
GAGACCGCAACTGAAAAGTTGTTATCAGAAATGGATGGGTTCCTTTCTGCACGTAGAAGCAAAAGGC [GATGTCC] | 0.00223
GAGACCGCAACTGAAAAGTTGTTATCGAAATGGATGGGTTGAATTTCTGCACGTAGAAGCAAAAGGC [ATGTGAA A27G G28A A31T T32G] | 0.733
GAGACCGCAACTGAAAAGTTGTTATCAGAAATGATGGGTTGAATTTCTGCACGTAGAAGCAAAAGGC [ATGTGAA] | 0.0281
